Results taken from the supplement of paper PMC7125110.
± gives the standard error. Fewer inactive variants are shown than the library holds.

B1: glmS ribozyme (parent)
chain: AUAAAAGCGCCAGAACUACAGAAAUGUAGUUGACGAGGAGGAGGUUUAUCGAAUUUUCGGCGGAUGCCUCCAAA

How the values were obtained:
Details in all cases: with glucosamine-6-phosphate
glucosamine-6-phosphate [1] = variants of: B1; experiment: self-cleavage kobs at 40 uM GlcN6P; higher = faster cleavage; RNA array
Outline: (§1)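 E. coli RNA polymerase transcribed barcoded ribozyme variants in situ on sequenced MiSeq chips, which were tracked via a hybridised Cy3 probe at 37 °C. Tiles were imaged over ~14 h after glucosamine-6-phosphate (40 μM to 10 mM) in HEPES/KCl/Mg(OAc)2 buffer was flowed in. Normalised per-tile medians were fit to one- or two-exponential decays for kobs, and kcat and KM came from weighted Michaelis–Menten fits.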

glucosamine-6-phosphate [2] = variants of: B1; experiment: self-cleavage kobs at 2500 uM GlcN6P; higher = faster cleavage; RNA array
Outline: as §1

glucosamine-6-phosphate [3] = variants of: B1; experiment: self-cleavage kobs at 10000 uM GlcN6P; higher = faster cleavage; RNA array
Outline: as §1

glucosamine-6-phosphate [4] = variants of: B1; experiment: self-cleavage kobs at 160 uM GlcN6P; higher = faster cleavage; RNA array
Outline: as §1

glucosamine-6-phosphate [5] = variants of: B1; experiment: self-cleavage kobs at 640 uM GlcN6P; higher = faster cleavage; RNA array
Outline: as §1

Variant | self-cleavage kobs at 40 uM GlcN6P (glucosamine-6-phosphate [1]) [s⁻¹] | self-cleavage kobs at 2500 uM GlcN6P (glucosamine-6-phosphate [2]) [s⁻¹] | self-cleavage kobs at 10000 uM GlcN6P (glucosamine-6-phosphate [3]) [s⁻¹] | self-cleavage kobs at 160 uM GlcN6P (glucosamine-6-phosphate [4]) [s⁻¹] | self-cleavage kobs at 640 uM GlcN6P (glucosamine-6-phosphate [5]) [s⁻¹]
A48G G63U | < 1e-05 | < 1e-05 | < 1e-05 |  | 
U47G U56G G63U | < 1e-05 |  |  |  | 
A6C C10G | < 1e-05 |  | < 1e-05 | < 1e-05 | < 1e-05
C50G C58A C67A | 7.83e-05 ± 1.2e-05 |  | 9.18e-05 ± 1.4e-05 |  | 
C11U G35C | < 1e-05 |  |  |  | 
G32A A48C | < 1e-05 |  |  | < 1e-05 | 
A33U A64C | < 1e-05 |  | < 1e-05 | < 1e-05 | < 1e-05
C10U G41U | < 1e-05 | < 1e-05 | < 1e-05 | < 1e-05 | < 1e-05
A14U G41C G43A G63U C67A C70A | < 1e-05 |  | < 1e-05 |  | 
G35C A42U | < 1e-05 | < 1e-05 |  | < 1e-05 | < 1e-05
C8U A42G | < 1e-05 |  | < 1e-05 | < 1e-05 | 
U46C G59C C68U | < 1e-05 |  |  |  | 
A48U C61U | < 1e-05 |  |  |  | < 1e-05
G35U A48G | < 1e-05 |  | < 1e-05 | < 1e-05 | < 1e-05
C10G G43C U46A G60A G62C | < 1e-05 |  |  |  | 
G59C C71U | < 1e-05 | < 1e-05 | < 1e-05 | < 1e-05 | < 1e-05
A53G C67A | 0.000314 ± 3.3e-05 | 0.000612 ± 0.00025 | 0.00957 ± 0.0018 |  | 0.00067 ± 0.00014
G41A C61U | < 1e-05 |  | < 1e-05 | < 1e-05 | < 1e-05
U49G C61U | < 1e-05 |  |  | < 1e-05 | 
C10U G63U C70U | < 1e-05 |  | < 1e-05 |  | 
G40A G43U | < 1e-05 |  | < 1e-05 | < 1e-05 | < 1e-05
G40U C67U C70A | < 1e-05 |  |  |  | 
U31G C61A | < 1e-05 | < 1e-05 | < 1e-05 | < 1e-05 | 
A6G C10G G13U C16G U54G U57G | < 1e-05 |  | < 1e-05 |  | 

Variant | self-cleavage kobs at 40 uM GlcN6P (glucosamine-6-phosphate [1]) [s⁻¹] | self-cleavage kobs at 2500 uM GlcN6P (glucosamine-6-phosphate [2]) [s⁻¹] | self-cleavage kobs at 10000 uM GlcN6P (glucosamine-6-phosphate [3]) [s⁻¹] | self-cleavage kobs at 160 uM GlcN6P (glucosamine-6-phosphate [4]) [s⁻¹] | self-cleavage kobs at 640 uM GlcN6P (glucosamine-6-phosphate [5]) [s⁻¹]
A33C G41C U57G | < 1e-05 | < 1e-05 |  |  | 
G41A G60A G62U C70A | < 1e-05 |  |  |  | 
G43A G51C U54C C71U | < 1e-05 | < 1e-05 |  |  | < 1e-05
A39G U45G A48G | < 1e-05 |  | 6.43e-05 ± 1.9e-05 |  | 
C8G U30A U31C | < 1e-05 |  | < 1e-05 |  | 
C8A U30G | < 1e-05 | < 1e-05 | < 1e-05 |  | < 1e-05
G29U U56G G62U | < 1e-05 |  |  |  | 
A14G G44U U49C | < 1e-05 |  |  |  | 
A14U U30C G44A U46G | < 1e-05 | < 1e-05 | < 1e-05 |  | < 1e-05
G29C U56G C70U | 6.27e-05 ± 2.2e-05 |  | 0.00013 ± 3.2e-05 |  | 
A33G G44C | < 1e-05 | < 1e-05 | < 1e-05 | < 1e-05 | < 1e-05
C10U G38C | < 1e-05 |  |  | < 1e-05 | 
G35C U56G C58A U69A | < 1e-05 | < 1e-05 |  | < 1e-05 | 
G7U C16U G29C U54A | < 1e-05 | < 1e-05 |  |  | 
G13A A48U | < 1e-05 |  |  | < 1e-05 | < 1e-05
A48U G62U C68G | < 1e-05 |  |  |  | 
A53G U65C | 3.6e-05 ± 1.8e-05 | 0.000224 ± 9.5e-05 | 0.000644 ± 0.00014 |  | 0.000302 ± 7.9e-05
G40C G41C G63U | < 1e-05 |  |  |  | 
A6U G7U A36G U49C C58G | < 1e-05 | < 1e-05 | < 1e-05 |  | < 1e-05
G9A U31G | < 1e-05 | < 1e-05 |  | < 1e-05 | 
A14C C50G C68A | 4.86e-05 ± 1.6e-05 |  | 0.000123 ± 2.5e-05 |  | 
G32A A36C U45C C70U | < 1e-05 |  | < 1e-05 |  | 
A48C C58U | < 1e-05 |  | < 1e-05 | < 1e-05 | < 1e-05
A14U G38U G63U | < 1e-05 |  | < 1e-05 |  | 

Variant | self-cleavage kobs at 40 uM GlcN6P (glucosamine-6-phosphate [1]) [s⁻¹] | self-cleavage kobs at 2500 uM GlcN6P (glucosamine-6-phosphate [2]) [s⁻¹] | self-cleavage kobs at 10000 uM GlcN6P (glucosamine-6-phosphate [3]) [s⁻¹] | self-cleavage kobs at 160 uM GlcN6P (glucosamine-6-phosphate [4]) [s⁻¹] | self-cleavage kobs at 640 uM GlcN6P (glucosamine-6-phosphate [5]) [s⁻¹]
A14G G29U A36G | < 1e-05 |  |  |  | 
A33U U46A | < 1e-05 |  |  | < 1e-05 | < 1e-05
G37C G41U U54G | < 1e-05 |  |  |  | 
C11U U45G C50A | < 1e-05 |  |  |  | 
C8A G29U C50U G51U C68G | 6.11e-05 ± 2.7e-05 |  |  |  | 
A15U C34G | < 1e-05 |  | < 1e-05 | < 1e-05 | < 1e-05
U30G U47A | 0.000162 ± 3.5e-05 |  | 0.00566 ± 0.0013 |  | 
C10A U46G U47G C50G C58G C68U | 0.000116 ± 2.2e-05 |  | 0.000242 ± 4.3e-05 |  | 
U69G | 0.000371 ± 0.00012 | 0.00011 ± 4.1e-05 | 0.000467 ± 7.8e-05 | 5.87e-05 ± 2.4e-06 | 0.000488 ± 0.00012
A15U G62A | < 1e-05 | < 1e-05 | < 1e-05 | < 1e-05 | 
C10G G51A | < 1e-05 | < 1e-05 | < 1e-05 |  | < 1e-05
G35U G43U U54A | < 1e-05 |  | < 1e-05 |  | 
G7C U65G | < 1e-05 | < 1e-05 | < 1e-05 |  | < 1e-05
A6G G32U U46G | < 1e-05 |  | < 1e-05 |  | 
A14G A33G G59U | < 1e-05 |  |  |  | 
A42G G63A | < 1e-05 | < 1e-05 | < 1e-05 | < 1e-05 | < 1e-05
A14U G35U G44C | < 1e-05 | < 1e-05 | < 1e-05 | < 1e-05 | < 1e-05
U55G C70U | 0.0011 ± 0.00013 |  |  | 0.00151 ± 0.00031 | 0.0043 ± 0.0011
C8U U30G | < 1e-05 |  | < 1e-05 | < 1e-05 | < 1e-05
A33U C50G C71G | 0.000128 ± 2.3e-05 |  | 0.0002 ± 4.2e-05 |  | 
G13A A15C A33U G35A C58A | < 1e-05 |  |  |  | 
C8U U47C | < 1e-05 | < 1e-05 | < 1e-05 | < 1e-05 | < 1e-05
A18C | 0.00108 ± 0.0003 |  |  | 0.00647 ± 0.0023 | 0.0169 ± 0.0041
C10G G43U U47G C61A | < 1e-05 | < 1e-05 |  |  | < 1e-05

Variant | self-cleavage kobs at 40 uM GlcN6P (glucosamine-6-phosphate [1]) [s⁻¹] | self-cleavage kobs at 2500 uM GlcN6P (glucosamine-6-phosphate [2]) [s⁻¹] | self-cleavage kobs at 10000 uM GlcN6P (glucosamine-6-phosphate [3]) [s⁻¹] | self-cleavage kobs at 160 uM GlcN6P (glucosamine-6-phosphate [4]) [s⁻¹] | self-cleavage kobs at 640 uM GlcN6P (glucosamine-6-phosphate [5]) [s⁻¹]
U65A C71A | 5.65e-05 ± 2.4e-05 | 0.0012 ± 0.00041 | 0.00104 ± 0.00039 |  | 
A36U U49C | < 1e-05 |  | < 1e-05 | < 1e-05 | < 1e-05
U30A A42G | 0.000294 ± 7.3e-05 |  | 0.0172 ± 0.0059 |  | 0.0017 ± 0.00047
C16U G29A G37C | < 1e-05 |  | 5.01e-05 ± 1.6e-05 |  | 
C34G A48G C68G | 8.52e-05 ± 3.4e-05 |  |  |  | 
A6U C10A G40A U46G | < 1e-05 |  | < 1e-05 |  | 
C11G G59C | 5.21e-05 ± 2.3e-05 |  | 0.000764 ± 0.00016 |  | 
A12C C16U G41U | 6.93e-05 ± 2e-05 | 0.000447 ± 9.6e-05 | 0.000649 ± 0.00015 |  | 0.000163 ± 3.3e-05
G35C G60A | < 1e-05 |  | < 1e-05 |  | < 1e-05
C11G G62A | < 1e-05 |  |  |  | 
A14G C16A U17C A18U C19A A20C | 0.000161 ± 4.5e-05 |  | 0.00427 ± 0.00081 |  | 
G29U U31C C50G | 6.96e-05 ± 3.2e-05 |  | 5.39e-05 ± 2.3e-05 |  | 
A33C A52U | < 1e-05 |  | < 1e-05 |  | < 1e-05
A15U G51U C71A | < 1e-05 |  | < 1e-05 |  | 
G32U G44A | < 1e-05 |  |  |  | 
U55C U56A | 0.000256 ± 4.6e-05 | 0.0131 ± 0.0031 | 0.0148 ± 0.0032 |  | 
G35A U57G | < 1e-05 |  |  |  | 
G35U U54A | < 1e-05 | < 1e-05 |  | < 1e-05 | < 1e-05
A14C C34A C67U | < 1e-05 | < 1e-05 | < 1e-05 |  | 
C11G A12U | < 1e-05 | < 1e-05 |  |  | 
A14C G29A C61G | < 1e-05 |  | < 1e-05 |  | 
G13C G63A | < 1e-05 | < 1e-05 |  |  | < 1e-05
A12U U57C G59C | < 1e-05 | < 1e-05 |  |  | < 1e-05
G51U U57C | < 1e-05 |  | < 1e-05 |  | < 1e-05
